Molecular target: T1, ADP-ribosyl cyclase 2 (BST1), human, cell-surface (human, UniProt Q10588 33-293)
T1 construct: Endogenous BST1 on A549, H226 and U937 cells and on blood cells of AML patients; also called CD157; Bone marrow stromal antigen 1
T1 sequence: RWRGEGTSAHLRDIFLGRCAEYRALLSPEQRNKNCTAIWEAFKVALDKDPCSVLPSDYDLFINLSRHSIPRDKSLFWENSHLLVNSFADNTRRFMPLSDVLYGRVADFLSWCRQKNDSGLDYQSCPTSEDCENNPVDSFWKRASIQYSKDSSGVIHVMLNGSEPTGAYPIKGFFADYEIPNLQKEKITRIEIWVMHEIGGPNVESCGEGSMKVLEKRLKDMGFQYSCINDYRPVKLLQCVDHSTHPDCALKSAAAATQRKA
Assay: flow cytometry on BST1-expressing A549 and H226 cells
Description: The specificity of antibodies against the BST1 selected in Example 6 was also tested by flow cytometry. To test the ability of the antibodies to bind to the cell surface BST1 protein, the antibodies were incubated with the BST1-expressing cells, H226 (human lung squamous carcinoma) and A549 (human lung adenocarinoma). Cells were washed in FACS buffer (DPBS, 2% FBS), centrifuged and resuspended in 100 μl of the diluted primary BST1 antibody (also diluted in FACS buffer). The antibody-A549 complex and antibody-H226 complex were incubated on ice for 60 min and then washed twice with FACS buffer as described above. The cell-antibody pellet was resuspended in 100 μl of the diluted secondary antibody (also diluted in FACS buffer) and incubated on ice for 60 min on ice. The pellet was washed as before and resuspended in 200 μl FACS buffer. The samples were loaded onto the BD FACScanto II flow sytometer and the data analyzed using the BD FACSdiva software. The binding of BST1_[…] and BST1_A2 to BST1 expressed on A549 and H226 cells were analysed using flow cytometry.

binding result: binds
B1: BST1_A1 anti-BST1 monoclonal antibody (Fab, V domains shown)
VH: QVKLQQSGAELVRPGSSVKISCKASGYAFSNSWINWVKQRPGQGLEWIGQIYPGDYDTNYNGKFKGKATLTADYSSSTAYMQLNSLTSEDSAVYFCARGGSIYYGNLGFFDVWGAGTTVTVSS
VL: EMVLTQSPAIMSTSLGERVTMTCTASSRVSSSYLHWYQQKPGSSPKLWIYSTSNLASGVPARFSGSGSGTSYSLTISSMEAEDAATYYCHQYHRSPYTFGGGTKLEIKR
